Consider 1 protein from PMC9246715, “Bacillus subtilis biofilm matrix components target seed oil bodies to promote growth and anti-fungal resistance in melon” (Nature Microbiology, 2022).

This data set concerns the molecule itself. Put plainly: thioflavin T fluorescence (polymerization kinetics) + TEM; purified TasA 0.4 or 0.2 mg/ml in buffer (20 mM Tris, 50 mM NaCl, pH 7) or seed apoplastic fluid, 20 µM ThT, 30 °C, shaking.

B1: amyloid protein TasA (natural protein, B. subtilis, UniProt P54507 28-261, looked up)
chain: AFNDIKSKDATFASGTLDLSAKENSASVNLSNLKPGDKLTKDFQFENNGSLAIKEVLMALNYGDFKANGGSNTSPEDFLSQFEVTLLTVGKEGGNGYPKNIILDDANLKDLYLMSAKNDAAAAEKIKKQIDPKFLNASGKVNVATIDGKTAPEYDGVPKTPTDFDQVQMEIQFKDDKTKDEKGLMVQNKYQGNSIKLQFSFEATQWNGLTIKKDHTDKDGYVKENEKAHSEDKN
notes: TasA, amyloid protein of the extracellular matrix of Bacillus subtilis biofilms; also called purified TasA
As for B1, the binding result was “binds”.
